Experimental data from the supplement of paper PMC10567573.

B1: ZNF8 (parent)
chain: VHVIGVEEPSVGASMLFDIREST
B2: MAGEA6 (parent)
chain: KISGGPRISYPLLHEWALREGEE

Variants of: B1
Experiment: protein stability index of a GFP-peptide fusion (GPS, HEK-293T) (PSI 1-6); higher = more stable
Conditions: c terminus: native
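Further: lentivirally expressed fusions sorted by FACS into six bins by GFP to DsRed ratio, PSI derived from sequencing read proportions per bin multiplied by bin number.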

Variant	protein stability index
V1I	2
V1C	1.93
V1D	3.96
V1K	3.52
V1L	1.79
V1Q	3.88
V1P	3.77
V1T	3.92
V1F	1.82
V1G	3.85
V1H	3.78
V1W	2.06
V1M	2.29
V1N	4.07
V1A	3.67
V1E	4.18
V1R	2.82
V1Y	2.29
V1S	3.97
G5A	1.63
G5C	2.82
V3E	4.1
V3T	3.08
V3P	3.49
V3A	3.18
V3C	2.74

Variant	protein stability index
V3F	1.94
V3R	2.81
V3L	1.88
V3H	3.02
V3M	2.84
V3Y	1.54
V3I	1.84
V3N	3.89
V3S	3.42
V3D	3.95
V3W	1.47
V3K	3.36
V3Q	3.87
V3G	3.42
I4T	3.3
I4V	2.54
I4H	2.62
I4P	3.88
I4Y	2.16
I4Q	3.47
I4K	3.18
I4S	3.63
I4F	2.13
I4N	3.43
I4R	2.9
I4C	2.59

Variant	protein stability index
I4L	2.51
I4A	3.55
I4G	3.34
I4E	3.73
I4D	3.97
I4M	2.77
I4W	1.94
H2F	1.97
H2T	1.79
H2L	2.9
H2I	2.56
H2G	3.35
H2D	3.42
H2C	1.63
H2Y	2.51
H2P	3.59
H2R	2.09
H2S	2.81
H2Q	2.27
H2K	2.29
H2E	3.35
H2V	1.83
H2W	2.25
H2N	2.95
H2A	2.67
H2M	1.43

Variants of: B2
Experiment: as above
Conditions: c terminus: native

Variant	protein stability index
G5F	2.74
G5Y	3.51
G5T	3.04
G5C	3.47
G5D	2.6
G21C	3.26
G21Y	2.4
E20K	3.74
E20W	2.32
E20S	4.57
E20L	3.74
E20T	2.92
L18T	2.04
L18N	2.16
L18E	3.11
L18W	2.78
R19N	1.43
R19C	2.87
R19P	2.18
R19K	2.08
R19A	2.07
R19D	2.96
R19E	2.29

Variant	protein stability index
R19H	3.42
I2W	2.41
I2D	4
I2C	2.55
E22V	1.06
E22L	2.44
E22I	2.37
E22T	2.36
E22N	2.53
E22P	1.85
E22G	2.18
E22A	2.4
E22R	3.04
E22D	3.35
G4I	3.06
G4V	1.61
G4S	5.95
L12G	5.59
L12T	2.23
L12H	2.3
I8A	1.95
I8M	2
I8P	2.24

Variant	protein stability index
I8Q	2.06
I8Y	2.6
E15K	3.16
E15N	2.31
E15I	2.14
E15G	3.53
Y10K	3.2
Y10L	3.04
Y10H	2.83
W16P	2.49
W16T	1.89
W16N	2.54
P11H	2.24
P11Q	2.63
P11E	3.27
P11R	3.25
S9F	1.61
L13Q	2.27
L13N	2.95
P6T	2.8
P6S	2.73
P6N	3.51
P6R	3.64

Variant	protein stability index
P6I	3.5
P6G	1.91
K1Q	2.35
K1F	1.67
E23R	1.88
E23T	2.25
E23M	2.17
E23Y	2.56
E23L	2.27
E23K	2.88
E23C	1.64
E23A	1.23
E23H	2.73
R7G	2.84
A17D	1.28
A17N	3.69
A17C	3.28
H14S	3.4
S3T	1.81
S3W	2.02
